Test results published in patent US12428627B2, “Mutant p-hydroxyphenylpyruvate dioxygenase, and coding nucleic acid and use thereof” (Qingdao Kingagroot Chemical Compound Co., Ltd., priority 2018, dated 2025).

What was measured:
rice HPPD (OsHPPD) = test: Color reaction of recombinant E. coli expressing wild-type or mutant rice HPPD, cultured in 96-well plate in medium containing an HPPD-inhibiting herbicide and tyrosine; assay type: cell-based, Oryza sativa; conditions: tembotrione and metabolic product of benzuofucaotong, FIG. 1
Text: The rice full-length OsHPPD enzyme has 446 amino acids and its amino acid sequence is set forth in SEQ ID NO: 2, wherein the amino acids 1-50 are considered to constitute a signal peptide which is responsible for directing into chloroplast (Siehl et al. Plant Physiol. 2014 November; 166(3): 1162-1176). Therefore, from the amino acid at the 51-position to the amino acid at the […], a saturated random mutation was made for each amino acid. This was achieved by performing a bridge PCR by using a primer containing a coding sequence of an amino acid to be mutated into NNK and another suitable conventional primer. In NNK, N represented A/T/G/C and K represented G/T, and the NNK codon could encode any one of 20 amino acids or terminators. Accordingly, this was a saturated mutation. Please see: Kille S. Acevedo-Rocha C G, Parra L P, Zhang Z G, Opperman D J, Reetz M T, Acevedo J P (2013) Reducing codon redundancy and screening effort of combinatorial protein libraries created by saturation mutagenesis. ACS Synth Biol 2(2):83-92; Directed Evolution Library Creation: methods and protocols 2nd ed. Edited by Elizabeth M. J. Gillam, Janine N. Copp and David F. Ackerley New York, NY United States: Springer, 2014. doi:10.1007/978-1-4939-1053-3. A large number of mutants would be produced. The mutant was cloned into a linearized pET-44a vector and transformed into E. co/i, which was cultivated by using a 96-well plate in a 2×YT culture solution containing an HPPD-inhibiting herbicide (such as 1-2 μM tembotrione) and a substrate tyrosine (1 g/L) in a shaker at 28° C. and 150 rpm for 24 hours for expression, and then the mutants were rapidly screened out according to their color browning. By using the method, 10 single amino acid mutants, A103S, H141R, H141 K, H141T, A165V, V191I, R220K, G342D, D370N and K410I, were screened out. The color reaction of these resistant mutants in the presence of tembotrione and the metabolic product of benzuofucaotong relative to that of the wild type was as shown in FIG. 1.
Similarly, the color reaction of these mutants in the presence of the other three HPPD-inhibiting herbicides huanbifucaotong, topramezone and mesotrione were determined, see FIGS. 2 and 3. The resistance/tolerance of each of the mutants to the five herbicides was roughly estimated on the basis of color changes thereof and the results were shown in Table 1. The more the plus sign “+”, the deeper the color and the higher the resistance/tolerance as compared to the wild type.
HPPD-inhibiting herbicides inhibited HPPD enzymatic activity. When tyrosine was converted to 4-hydroxyphenylpyruvate (HPP) under the action of tyrosine transaminase, the inactivated HPPD was unable to oxidize 4-hydroxyphenylpyruvate into homogentisic acid (HGA). HGA was dark brown. Therefore, if an HPPD mutant was resistant to or tolerant to an herbicide, after expressed in E. coli, the mutant could also oxidize 4-hydroxyphenylpyruvate into homogentisic acid, whereby dark brown appeared. Therefore, E. coli was cultured in a 2×YT culture medium containing a HPPD-inhibiting herbicide and a substrate tyrosine using a 96-well plate to express HPPD, and these mutants were rapidly screened according to their color changes. • (1) Preparation of 2×YT culture medium (1 g/L L-Tyr, 0.1 mM IPTG, 0.01 mM MnCl2 and 100 mg/L ampicillin were added). • (2) 0.1 mL of the above medium was added to each well of a 96-well plate, and the expression clones of OsHPPD wild type or mutant (OsHPPD Mut) from the E. coli plate obtained by the above transformation were subjected to liquid culture in the 96-well plate. HPPD inhibitors having a final concentration of 1 μM-20 μM were added according to different selected agents, for example, the final concentration of tembotrione was 1.7 μM while mesotrione was 10 μM. […]

[1] = test system: Huaidao No. 5 rice seedlings; test: Gene-edited rice seedlings (base editing / homologous replacement of HPPD gene) on medium containing tembotrione; assay type: in vivo; conditions: medium containing 0.4 μM tembotrione
Description: The calli of Huaidao No. 5 (at least 3000 callis) were infected according to the aforesaid method for infecting rice callis with Agrobacterium. After being infected with Agrobacterium, the infected calli were transferred to a 50 mg/L hyg screening medium for screening culture. After three rounds (15 days×3) of screening, the blond calli with good growth state were picked out to differentiate in a differentiation medium, and 0.2 μM tembotrione was added during the differentiation process for screening. After for 3-4 weeks, about 1,500 seedlings with around 1 cm were obtained. As to the about 1,500 differentiated seedlings, the vast majority of which had been bleached, and only 4 seedlings remained normal green. The 4 seedlings were transplanted to a rooting medium containing 0.4 μM tembotrione and cultivated for 2 weeks, wherein two seedlings had been bleached, while the other two seedlings remained green (FIG. 14A). A small number of leaves were used to extract genomic DNA by CTAB method. PCR was carried out by using the primers oshppd54F: TTCCACCACGTCGAGCTC and Oshppd356R: […]. The amplified product was detected by 1% agarose electrophoresis and sequenced by Sanger sequencing method. […]

B1: H141R: single-site mutant rice HPPD (protein, listed as Oryza sativa)
chain: MPPTPTPTATTGAVSAAAAAGENAGFRLVGHRRFVRANPRSDRFQALAFHHVELWCADAASAAGRFAFALGAPLAARSDLSTGNSAHASLLLRSASVAFLFTAPYGGDHGVGADAATTASIPSFSPGAARRFAADHGLAVRAVALRVADAADAFRASVAAGARPAFQPADLGGGFGLAEVELYGDVVLRFVSHPDGADAPFLPGFEGVSNPGAVDYGLRRFDHVVGNVPELAPVAAYISGFTGFHEFAEFTAEDVGTAESGLNSVVLANNAETVLLPLNEPVHGTKRRSQIQTYLDHHGGPGVQHIALASDDVLGTLREMRARSAMGGFEFLAPPPPNYYDGVRRRAGDVLSEEQINECQELGVLVDRDDQGVLLQIFTKPVGDRPTFFLEMIQRIGCMEKDESGQEYQKGGCGGFGKGNFSELFKSIEEYEKSLEAKQAPTVQGS
modifications: The amino acid sequence of Wild-Type rice HPPD protein (OsHPPD _WT)
Rice HPPD (OsHPPD)
  color change compared with wild type: obviously deeper than that of the wild type
[1]
  state of successfully edited seedlings: remain green
